Here are results for 4 molecules from patent publication US5478723A, “Method and apparatus for determining the role of cytochrome P450 and related enzymes in the metabolism of drugs and other chemicals” (priority 1993, dated 1995).

First the molecules themselves.
B1: CYP1A2: P450 enzyme in frozen human liver (protein, UniProt P05177 2-516, looked up)
Cytochrome P450 1A2: ALSQSVPFSATELLLASAIFCLVFWVLKGLRPRVPKGLKSPPEPWGWPLLGHVLTLGKNPHLALSRMSQRYGDVLQIRIGSTPVLVLSRLDTIRQALVRQGDDFKGRPDLYTSTLITDGQSLTFSTDSGPVWAARRRLAQNALNTFSIASDPASSSSCYLEEHVSKEAKALISRLQELMAGPGHFDPYNQVVVSVANVIGAMCFGQHFPESSDEMLSLVKNTHEFVETASSGNPLDFFPILRYLPNPALQRFKAFNQRFLWFLQKTVQEHYQDFDKNSVRDITGALFKHSKKGPRASGNLIPQEKIVNLVNDIFGAGFDTVTTAISWSLMYLVTKPEIQRKIQKELDTVIGRERRPRLSDRPQLPYLEAFILETFRHSSFLPFTIPHSTTRDTTLNGFYIPKKCCVFVNQWQVNHDPELWEDPSEFRPERFLTADGTAINKPLSEKMMLFGMGKRRCIGEVLAKWEIFLFLAILLQQLEFSVPPGVKVDLTPIYGLTMKHARCEHVQARLRFSIN
B2: CYP2E1: P450 enzyme in frozen human liver (protein, UniProt P05181 1-493, looked up)
Cytochrome P450 2E1: MSALGVTVALLVWAAFLLLVSMWRQVHSSWNLPPGPFPLPIIGNLFQLELKNIPKSFTRLAQRFGPVFTLYVGSQRMVVMHGYKAVKEALLDYKDEFSGRGDLPAFHAHRDRGIIFNNGPTWKDIRRFSLTTLRNYGMGKQGNESRIQREAHFLLEALRKTQGQPFDPTFLIGCAPCNVIADILFRKHFDYNDEKFLRLMYLFNENFHLLSTPWLQLYNNFPSFLHYLPGSHRKVIKNVAEVKEYVSERVKEHHQSLDPNCPRDLTDCLLVEMEKEKHSAERLYTMDGITVTVADLFFAGTETTSTTLRYGLLILMKYPEIEEKLHEEIDRVIGPSRIPAIKDRQEMPYMDAVVHEIQRFITLVPSNLPHEATRDTIFRGYLIPKGTVVVPTLDSVLYDNQEFPDPEKFKPEHFLNENGKFKYSDYFKPFSTGKRVCAGEGLARMELFLLLCAILQHFNLKPLVDPKDIDLSPIHIGFGCIPPRYKLCVIPRS
B3: CYP2A6: P450 enzyme in frozen human liver (protein, UniProt P11509 1-494, looked up)
Cytochrome P450 2A6: MLASGMLLVALLVCLTVMVLMSVWQQRKSKGKLPPGPTPLPFIGNYLQLNTEQMYNSLMKISERYGPVFTIHLGPRRVVVLCGHDAVREALVDQAEEFSGRGEQATFDWVFKGYGVVFSNGERAKQLRRFSIATLRDFGVGKRGIEERIQEEAGFLIDALRGTGGANIDPTFFLSRTVSNVISSIVFGDRFDYKDKEFLSLLRMMLGIFQFTSTSTGQLYEMFSSVMKHLPGPQQQAFQLLQGLEDFIAKKVEHNQRTLDPNSPRDFIDSFLIRMQEEEKNPNTEFYLKNLVMTTLNLFIGGTETVSTTLRYGFLLLMKHPEVEAKVHEEIDRVIGKNRQPKFEDRAKMPYMEAVIHEIQRFGDVIPMSLARRVKKDTKFRDFFLPKGTEVYPMLGSVLRDPSFFSNPQDFNPQHFLNEKGQFKKSDAFVPFSIGKRNCFGEGLARMELFLFFTTVMQNFRLKSSQSPKDIDVSPKHVGFATIPRNYTMSFLPR
B4: CYP2D6: P450 enzyme in frozen human liver (protein, UniProt P10635 1-497, looked up)
Cytochrome P450 2D6: MGLEALVPLAVIVAIFLLLVDLMHRRQRWAARYPPGPLPLPGLGNLLHVDFQNTPYCFDQLRRRFGDVFSLQLAWTPVVVLNGLAAVREALVTHGEDTADRPPVPITQILGFGPRSQGVFLARYGPAWREQRRFSVSTLRNLGLGKKSLEQWVTEEAACLCAAFANHSGRPFRPNGLLDKAVSNVIASLTCGRRFEYDDPRFLRLLDLAQEGLKEESGFLREVLNAVPVLLHIPALAGKVLRFQKAFLTQLDELLTEHRMTWDPAQPPRDLTEAFLAEMEKAKGNPESSFNDENLRIVVADLFSAGMVTTSTTLAWGLLLMILHPDVQRRVQQEIDDVIGQVRRPEMGDQAHMPYTTAVIHEVQRFGDIVPLGVTHMTSRDIEVQGFRIPKGTTLITNLSSVLKDEAVWEKPFRFHPEHFLDAQGHFVKPEAFLPFSAGRRACLGEPLARMELFLFFTSLLQHFSFSVPTGQPRPSHHGVFAFLVSPSPYELCAVPR

The data set can be described thus: Storage stability of P450 enzymes in frozen human liver. In kind it is physicochemical. The settings on record: human liver at -65 to -90 degrees C, up to six months. From the text: P450 enzymes in frozen liver microsomes appear to be relatively stable.
As for B1, the degradation on storage entry is “no detectable degradation”. To B2 belongs “no detectable degradation”; to B3, “no detectable degradation”. Consider B4, for which the degradation on storage result was “no detectable degradation”.
